Laboratory results reported in the DeepSol protein solubility set.

Assay: soluble on expression in E. coli; label from the status in PepcDB or PDB records

Question: For “MDKKQVTDLRSELLDSRFGAKSISTIAESKRFPLHEMRDDVAFQIINDELYLDGNARQNLATFCQTWDDENVHKLMDLSINKNWIDKEEYPQSAAIDLRCVNMVADLWHAPAPKNGQAVGTNTIGSSEACMLGGMAMKWRWRKRMEAAGKPTDKPNLVCGPVQICWHKFARYWDVELREIPMRPGQLFMDPKRMIEACDENTIGVVPTFGVTYTGNYEFPQPLHDALDKFQADTGIDIDMHIDAASGGFLAPFVAPDIVWDFRLPRVKSISASGHKFGLAPLGCGWVIWRDEEALPQELVFNVDYLGGQIGTFAINFSRPAGQVIAQYYEFLRLGREGYTKVQNASYQVAAYLADEIAKLGPYEFICTGRPDEGIPAVCFKLKDGEDPGYTLYDLSERLRLRGWQVPAFTLGGEATDIVVMRIMCRRGFEMDFAELLLEDYKASLKYLSDHPKLQGIAQQNSFKHT”, which “soluble on expression in E. coli” value is on record?
Answer: soluble

Question: For “MDKKVYNTYVSILKNELVVALGCTEPIAIAYAGAKVREVLEAMPDRCEINCSGNIVKNVKGVTVPNSGGMKGIDTAATLGIVGGNVKRILAVLEDITPEQIETTQKLVKEGFCSCGLIEGVENLYIIITAYAGEESATVEIRDYHSNITKIVKNGKIIFSTDDEQSEQSSGPDKSLLNVKDILEFADCVDLSDISEVISRQIECNTAISQEGLNNPWGAQVGRTLLDTFGSDVAIRAKAAAAAGSDARMSGCPMPVVINSGSGNQGMTVSLPIIEYAKEYNISDEGLYRALVAGNLISLHQKKYIGSLSAYCGAVSAACGSGVGIAYMLGASYDEICGIITDTIATIGGMVCDGAKPSCAAKIASAVDCALTAFHLSKNKRVFQPGEGLVKETVEDTIQSIGRMGREGMKATDIEILNIMLEN”, which “soluble on expression in E. coli” value is on record?
Answer: not soluble

Question: Which “soluble on expression in E. coli” value does the source give for “MDKTNLGELINQGKSLLDESVEGFNVGEYHKGAKDGLTVEINKAEEVFNKEDATEEEINLAKESLEGAIARFNSLLIEESTGDFNGNGKIDIGDLAMVSKNIGSTTNTSLDLNKDGSIDEYEISFINHRILNLEHHHHHH” here?
Answer: soluble

Question: For “MDLADLMEVENGDHSINQKHVQITFFSKDEEIPQIPDAVFDVPTGAECDDMNLLLNKTIEANDGAWKERRFEFLVGETFLRTSLAEFIEEYEVETETILKVECVIGIEAPKPLHDIQAPDWVSSVQIANGHIFSTTYGGDIVIVDRKGKETKLAVNSANRLLKCISIVKAPSKKNQLDGTEFVVGGENQLLTLYAIEKGALVEKLILRGHERAVECVSVNSDSTRAISGSVDTNLKIWNLDASDEATTYEKEEEEESAKKRRKKETKTKVPMVTIGGHRDKVSAVEWCPWNSGHAFSCSWDHTIVEWDLELAGEISRIKGPKSFTSIDLHPKSDLLISSCTDAIPRLYDPKNRDGSMVKQSFIGHQNGWVEAVKWNPLDTNQFVSVSTDKTAKMWDVRSSKSSLFDIHGHDDRILCATWNEGLIATGSADCTIKIFETA”, which “soluble on expression in E. coli” value is on record?
Answer: not soluble

Question: For “MDLFPVLKELAQKTPSKILLIVLDGVGGLPLEPGGPTELEAAKTPNLDRLAEESALGLLTPVYPGLAPGSGPGHLALFGYDPFRYVVGRGALSALGLGADFREGDVALRGNFATLDPEGKVVDRRAGRPPTEENQRVIAKLKEAIPRIEDVEVLFYTESEHRFLVILRGEGLEDKVTDTDPQKTGLPPLKAKALDEASERTARLVNLLSERIREVLKDEPRMNGALFRGASKKPSFPRMQEVYKLTPAAIASYPMYKGLASLVGMEVLPVEGEGDALEGKLKALKENWGRYDFFYFHVKKTDAMGEDGNFHGKVEKVELFDALLPEILALGPDVLAITGDHSTPALLKAHSWHPVPLLLKAPYLRADEARRFTEREAQRGSLGHLRGVELMPLLLAHAGKLLKYGA”, which “soluble on expression in E. coli” value is on record?
Answer: soluble

Question: For “MDLKKLLPCGKVIVFRKGEIVKHQDDPIEDVLILLEGTLKTEHVSENGKTLEIDEIKPVQIIASGFIFSSEPRFPVNVVAGENSKILSIPKEVFLDLLMKDRELLLFFLKDVSEHFRVVSEKLFFLTTKTLREKLMNFLVRHMNEKRELTLPVTLEELSRLFGCARPALSRVFQELEREGYIEKHGRRIKVLKNPFEHDRI”, which “soluble on expression in E. coli” value is on record?
Answer: not soluble

Question: With “MDLSSLEIFRAVAHEASVTRAAQRLQRAQSNVTTRIRQLEEDLGVELFLRDGKRMSLTERGSEFLAYAEQLLALADEARQSMHPAEPGGRLRLGSMESTAASRLPALLASYHKACPRVALEVSTGTSHALFDGVRARRLDCALVAAGPGWAGELDGSGLRGEPLFREELLMILPAEHPPVHDVAEVRLRTLAGFARGCTYRQLAEDSLGTPLTVQEVGSYHAILACVAAGACVGVLPRSVLQLLGTPPLRSLPLAEVDTWLVWREGYATAAFERWRGVLGQAGD” as the sequence, how does the “soluble on expression in E. coli” value read?
Answer: not soluble

Question: Which “soluble on expression in E. coli” value does the source give for “MDMESQKILFALSTPMEIRNECCLPSHSSPKMYLGTCFFDLSSSWGIDDRDDLLRTIHRMIDNGHAARLAGFYHRWFRYSPCEWRDYLAELNEQGQAYAQFVASTAECCGEGGIKAWDYVRMGFLSRMGVLNNWLSEEESLWIQSRIHLRALRYYSNWRQYFAGYTFGRQYWQSPEDDHLPLLREFLARKEYDDSGNDMFYQLFASDDAYYPTLSWQPLAYYSACPETLKDMSDL” here?
Answer: not soluble

Question: Which “soluble on expression in E. coli” value does the source give for “MDMGLREMCVGEKRTVIIPPHLGYGEAGVDGEVPGSAVLVFDIELLELVAGLPEGYMFIWNGEVSPNLFEEIDKDGNGEVLLEEFSEYIHAQVASGKGKLAPGFDAELIVKNMFTNQDRNGDGKVTAEEFKLKDQEAKQDEL” here?
Answer: soluble

Question: Which “soluble on expression in E. coli” value does the source give for “MDMLKENVIQNNEARTESSVEPSHPDMMETVPEEQQKPISHIDDLLSETANLMAVKEQLLKEIAENEHIHSMQMRALQNLPQEAILPLQYHADPRRRHRMQKPESYKTVICQAWLESKTCAFAENCRFAHGEEELRPSLIEARQNNKYRTKLCDKYTTTGLCPYGKRCLFIHPDNGPNAYIRADKLFEVSQRHALADLRDQMEHHIMNGGRSTAGPQQFDMFARPCTPDEPAANMPLGPTPVSIRGPRYELPSKKPLETEEAGNRPPSSWPLDPSTFFALDSLNMATRPISPFESMLIGAAGNMQYSMLGKQSTPGGVSGYSSSGSTPSQDSDSSPLTAASAAADAACQANSESAQSILLKSINNPMIGNETTLPIPGLDQLAMDIAKHLELW” here?
Answer: not soluble

Question: Which “soluble on expression in E. coli” value does the source give for “MDMTYNMRNAMASSRNMEEPQYDMSTIDLTQNSMNTNYLMNGSVLTNAYNNDYIVNNRDKYTGDMISQLKIDQGIPTYSHTLPMNGTTLADTNDSLNIQGMMRTNMDTTGFDGYSHIMNYNNTQNTIQTNPITYRMEDYNNLNNDVMYINPTTGEKFSAEYVNNIPTNDSDNMLYSNNFKNNSINMNTLLNSHYNNLPYPMPIYESMNNPQMYMQHMNQKQTVNIPLQHGEKKSAARNISTVNKRRIKTKKFFPCC” here?
Answer: not soluble

Question: For “MDNEEYYKILGVAKSASQDEIKHAYRKMSKKYHPDLNHQPGAEDKYKQVQEAYETLGDPQKRAAYDQYGKAGANANNGQGGFGGFQQSGFNFNGQDFGDFSDIFSQMFGGSFNPNAPRKGRDLQYRINLTFEEAVFGKETEIKYVRQESGGNSKEHTVKVTIPAGVETGQQMRLAGQGEAGTHGGPYGDLYVEFIVGKSKDGFERQGANIYLEEPINFVQAALGDKIKVKTVHGDVELTIPAGTQTDTEFRLRGKGAPYVNSSRIGDEYVKVIVQVPKRLNEKEKKALKTYADLRGENVNPQKRRGLFG”, which “soluble on expression in E. coli” value is on record?
Answer: not soluble

Question: With “MDNHKCVLVIDKALPQGLIANTAAVLTLSLGKLHPELIGADNVNKNGEIHTGITSIPIPILASSSHKIKEIRASLKEEATLVDFSNVAQTTKNYQDYSDKLAATRPEDIEYLGIAIYGTKKIINKHTGNLGLIRLEHHHHHH” as the sequence, how does the “soluble on expression in E. coli” value read?
Answer: soluble

Question: Which “soluble on expression in E. coli” value does the source give for “MDNQKRPFTTRFDHYNYNVLNLERSLAFYDRAFGFREVKRKEAADGSFILVYLGDVYGHFLLELTWLRDRKEPYNLGENEVHLCVRTTGDYDAVREYHRAMGCICYENEQMGLYFVNDPDGYWIEVLPENRD” here?
Answer: not soluble

Question: For “MDPALAAQMSEAVAEKMLQYRRDTAGWKICREGNGVSVSWRPSVEFPGNLYRGEGIVYGTLEEVWDCVKPAVGGLRVKWDENVTGFEIIQSITDTLCVSRTSTPSAAMKLISPRDFVDLVLVKRYEDGTISSNATHVEHPLCPPKPGFVRGFNHPCGCFCEPLPGEPTKTNLVTFFHTDLSGYLPQNVVDSFFPRSMTRFYANLQKAVKQFHE”, which “soluble on expression in E. coli” value is on record?
Answer: soluble

Question: Which “soluble on expression in E. coli” value does the source give for “MDPFDRPKNDNDPFEDALKRCHKILEKLDCPFVTGKEKDLDESDDMTENEDHDEMANEDDGIPSNEKKVETRKMDCTSGQLLAPKLPEKAESISSASESSEDSESVAILKYTVRTCYAIWKKRQKNSEIALKGLMIVLELCLSQPSARDDAFSALLETLGYNTVTFWKAVVPQIYNSDLSYATQYREALLFSLVLYDVNHSKNRLRELYAAVPGVRQSMLGIRAKQFGERYRHLQMKIARSRASSRMSSKMGSEENLPAMASMMNDVVFDEEPHTQSPLVDMSHDKQRVINVSNAPPVSISRKTSGSWEIKQGSGGLVACVDPVMSADKKNIWLSNLGVNMQEELKEHSTSTNSLGLPLIKQACAGEVFCVLERNEKKEELTPKQQAVESDMSLLSVLNTYNKHSYQLNPVVVNQDDYNTYYGGISNGLLWPALHNLPQYISPCFDDPELLREQWCAYVRVNYLFAINAARNSRAQDFIWIHDYHLMLCGQIMRSLESSLDIGFFIHIPFQPPANFMTKYKTVADPIMRALLRFTKVGFQTSRDRDTFVKLVAKHIKRTKIEYDSRLDRYTIEHDGWTCSLGVFPVSIKIADFVNIAKNPQTIIEAEEIKKQIMGRSADGGQLFFSVERFDYTKGISEKLRAWQRYFEKYPDRIGKDVLFQVAVTNRRSVDSYRQYQDDVLAVADLINQKFKSEDYPEWKPVIFETDGLPRTRLIAHYLAMDIGVVTPSKDGMNLVAKEMLVCNPTASLVLSTGAGTEVQLSNAQFYSEQEGKCYHRVEEISNTEAFADNFFAAATESKETRTKHGEKINQFLCVHDIDEWSDQFLDPKWTHEVISQCEVKQLGQFYGLMSRTAQVRRQIVECVLKGLPIRPHFRYSLENAKNSLESSCKSGTKLSLEADEESGEEKGFEITYDIHDELSEMEKDLAFLAFIQSDEYENAEEFIKTLGSFYEGGPVLFKNEVKQAAEMLQQGIHYNTFFTDRDGTLKSYACSYPTSVQPAYSAVIQAQFARRCATFCAIVTTAPLLHTGILEVATIPEGYYAYGASAGREWYLNPAQQFKDRSFSAIDLNLMNKVFDIIEELLERPEFRIFKWIGSGIQKHCGHITIAKQDVNGTIPSRKVIRLYEQLVKIVNDFDPNGTTLTMRESDLDFKIYVKAKLKGRIFNKGHGIRLVRERLKPNMSKGNCLVCGDNESDIPMLEECLKLAGSKVYTIWVTADTNLQEKVTQLCDRFSCSNIHFVSCPQVLLGAMAYATAHTLVDERNRKLDYYYDSDTPMDQEESSTLGASLGTSFGN” here?
Answer: not soluble

Question: With “MDPSAAFRSFPTQERGILLADTYKPLSLYAADVQVRLSGSAAQVILSLEYVNETNKLVRAIAAYPAPSSYQLQCATLQGPAREISARSYVRSRPLRSVEAGSALCAEPLVDTAVSTVATQSVPWDVSPGESVLMKAVYHAPISVTHRTGEIVFTLPASLIPAVQRPPDVQRGYMKFLDARSQLRHLAQQGGSLRVCVDAQLLVPLRGVVTLEKGPEVVPEMGVTGTSVNVHYVGDTHFQMTYHDDLPKTAYMQVPLCVRAPVAETSEPLRLHTVAASLPPTSAPSDHPTAEVAAAMVVSIAPFLANCPINAEIMFVVDVHSAALGARAAESVMSAIRSLNGTASLVNVILCRDAHRGGAVSLLPDESVQSSAVPQESMLAFMKEEGVQTSSSKGPATLSPHLPSLLHDITTGRGITTSIPAGYVRNVIVLSDGGSQPVDADAVAMVCQVTNAGRACRVHAVALAATADHAVLEALAEACGGCFASAAASGSSEAGGSAVDEAVQAAVSAAAVPCLVDIRTKWDVTGGDIAVASSVQAAAAAPSPLRMATDADGGSIACVPHGTQRLLYGLLASANSQLAVRVFGRVGEMRLEYTASSAIQPPPQSDAADTAAAADATDEESGRAPPMLMTAAAAARIAYLTHILHTTSEDEALEVIALSKRYMLPSPYTTLTDGNSGPGGEHKLGGVVHLPSMQAAAHVELAIRARRVELQAAAALRALRPA” as the sequence, how does the “soluble on expression in E. coli” value read?
Answer: soluble
